{
  "source": "paper PMC9814837",
  "about": "“Design of a gold clustering site in an engineered apo-ferritin cage” (Communications Chemistry, 2022)",
  "proteins": {"B1": {"name": "apo-R168H/L169C-rHLFr (recombinant L-chain ferritin from horse liver, R168H/L169C mutant) (natural protein, UniProt P02791 1-175, looked up)", "chain": "MSSQIRQNYSTEVEAAVNRLVNLYLRASYTYLSLGFYFDRDDVALEGVCHFFRELAEEKREGAERLLKMQNQRGGRALFQDLQKPSQDEWGTTLDAMKAAIVLEKSLNQALLDLHALGSAQADPHLCDFLESHFLDEEVKLIKKMGDHLTNIQRLVGSQAGLGEYLFEHCTLKHD", "notes": "ferritin L-chain, horse liver, recombinant (rHLFr); last residue named is Asp174; Crystallised apo and after reaction with 10-400 equiv. of chloro(dimethylsulfide)gold(I); also called Au(10 equiv.)-apo-R168H/L169C-rHLFr; Au(50 equiv.)-apo-R168H/L169C-rHLFr; source: E. coli (NovaBlue, vector pMK2), purified (heat treatment, Q Sepharose, S-300); copies: 24"}},
  "target": "the molecule itself",
  "assay": "crystal structure; hanging-drop vapor diffusion, 0.5-1 M (NH4)2SO4 and 10-20 mM CdSO4, 20 °C; data at 100 K; space group F432, cage rebuilt by symmetry; apo protein and composites after reaction with 10-400 equiv. Au(I) precursor",
  "data": [
    {"protein": "B1", "values": [
      {"measurement": "binding result", "value": "binds"}
    ]}
  ]
}
